Source: the supplement of paper PMC9732359
± gives the uncertainty stated by the source.

Experiment: protein stability index of a GFP-peptide fusion (yeast GPS) (PSI 1-4); higher = more stable; sorted into four equal gates, so the index is relative within each strain
In short: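 Mid-log yeast cultures in leucine-free medium, carrying a pooled plasmid library, were sorted into four equal gates by their GFP/Cherry fluorescence ratio. Each plasmid expressed Cherry along with GFP fused upstream of a tiled 17-residue yeast protein peptide. Plasmids recovered from each gate were PCR-amplified and Illumina-sequenced, with reads assigned to strains by barcodes. The protein stability index was obtained by summing each gate's read frequency weighted by its gate number.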

Sequence | protein stability index (doa10∆) | protein stability index (pdr5∆) | protein stability index (san1∆) | protein stability index (ubr1∆)
DMDPLAVSAASVVSMSN [SIR2] | 1.67 ± 0.065 | 2.31 ± 0.12 | 1.71 ± 0.18 | 2.19 ± 0.072
DTETFDTVNSALENDVA [YML103C/NUP188] |  | 3.63 ± 0.23 | 3.16 ± 0.2 | 2.69 ± 0.17
GNGLVDENKVEAFKSLY [YAR002W/NUP60] | 3.35 ± 0.1 | 3.14 ± 0.12 | 3.53 ± 0.056 | 3.3 ± 0.053
LIQLQNIFKAEMDSVSK [CSN9] | 2.55 ± 0.08 | 2.54 ± 0.14 |  | 2.81 ± 0.13
RFMRFLADRDEFIQDSA [ECM29] | 1.87 ± 0.052 | 1.23 ± 0.042 | 1.21 ± 0.094 | 2.26 ± 0.029
MINDENYIINDIKKNNK [SRB8] | 3.15 ± 0.078 | 2.97 ± 0.095 | 3.42 ± 0.12 | 3.21 ± 0.13
IKTRDACPLDNQPWQLA [HRT1] | 3.02 ± 0.085 | 2.66 ± 0.063 | 2.27 ± 0.073 | 3.12 ± 0.049
GLWGFSTATRNVTMIDD [COR1] | 3.18 ± 0.083 | 3.1 ± 0.08 | 3.02 ± 0.064 | 2.85 ± 0.066
QGRFRGNLSGKRVDFSG [RPO31] | 3.36 ± 0.099 | 2.12 ± 0.11 | 2.76 ± 0.1 | 2.56 ± 0.12
LKNLRKKLNFKLCQAFM [YJR042W/NUP85] | 2.19 ± 0.089 | 2.18 ± 0.093 | 1.61 ± 0.15 | 2.98 ± 0.15
LVRRLSDIKQGYTQHGG [PRE9] | 2.5 ± 0.14 | 2.06 ± 0.25 | 2.48 ± 0.09 | 
SYNNTGISDDENDEEDI [RRP4] | 2.85 ± 0.11 | 3.27 ± 0.12 | 2.84 ± 0.086 | 2.96 ± 0.099
QIQFTPLIKKIKYEPRF [SMC3] | 2.62 ± 0.061 | 2.52 ± 0.045 | 2.83 ± 0.09 | 2.43 ± 0.062
GGSRGGGSNYMSNLPFG [RPC31] | 2.94 ± 0.27 | 3.21 ± 0.18 |  | 3.14 ± 0.17
CTKLAVYYSKRGFKVGL [SRP54] | 2.57 ± 0.14 | 2.73 ± 0.13 | 2.23 ± 0.099 | 2.54 ± 0.06
KRGVKGVEYRLRLRISR [RPL31A] | 1.64 ± 0.12 | 1.36 ± 0.12 |  | 1.78 ± 0.19
RGNKVNKQIEILTDLVN [ITC1] | 2.83 ± 0.11 | 2.75 ± 0.098 | 2.71 ± 0.11 | 2.97 ± 0.13
DMQSSVDTGLQPQHPHY [YLR018C/POM34] | 2.56 ± 0.043 | 2.86 ± 0.039 | 2.96 ± 0.036 | 2.956 ± 0.029
SPRFNVKIGDIEKWTAN [RPS22A] | 3.06 ± 0.082 | 3.23 ± 0.075 | 2.85 ± 0.065 | 3.34 ± 0.073
LGLLLPIAASTDLPIET [RPN1] | 1.67 ± 0.049 | 2 ± 0.065 | 1.79 ± 0.076 | 2.17 ± 0.055
EHRIRVFFDKRIGQEVD [RPS6A] | 3.25 ± 0.14 | 3.09 ± 0.14 | 2.6 ± 0.29 | 2.87 ± 0.2
LAKERQKLWLLECQLFP [SSN8] | 2.06 ± 0.057 | 1.85 ± 0.052 | 1.47 ± 0.1 | 2.05 ± 0.047
SLFELIVPIFQLISAVL [YJL039C/NUP192] | 1.86 ± 0.068 | 1.75 ± 0.051 | 1.7 ± 0.097 | 1.85 ± 0.037
VTGASQFQRLAPSLTVP [PRE2] | 2.01 ± 0.096 | 1.25 ± 0.095 | 1.36 ± 0.2 | 1.67 ± 0.089
DSNSEILNFLNQEDLFE [YML103C/NUP188] | 2.79 ± 0.12 | 2.86 ± 0.089 | 2.76 ± 0.049 | 3.14 ± 0.086
DSDGTRLKGDIFCVGSG [PRE2] | 2.88 ± 0.057 | 2.87 ± 0.057 | 2.93 ± 0.091 | 2.45 ± 0.061

Sequence | protein stability index (doa10∆) | protein stability index (pdr5∆) | protein stability index (san1∆) | protein stability index (ubr1∆)
DKGLLPYAIMETANEIL [RPO31] | 2.95 ± 0.14 | 2.71 ± 0.19 |  | 2.25 ± 0.13
NFLIKLSELSPGIMLRQ [YCS4] | 2.77 ± 0.093 | 2.98 ± 0.1 | 3.1 ± 0.094 | 2.95 ± 0.093
RSDREYPLLIRMSYGSH [SRP14] | 2.51 ± 0.077 | 2.3 ± 0.077 | 1.92 ± 0.077 | 2.23 ± 0.061
LLRSVLVLLELVSSGDR [YML103C/NUP188] | 1.84 ± 0.23 | 2.03 ± 0.12 |  | 2.28 ± 0.15
PKALRFDRLVAGQIPTG [FAS2] | 2.15 ± 0.18 |  | 2.59 ± 0.25 | 
EIEPILMEIHNILKVDS [RGR1] | 1.74 ± 0.098 | 1.84 ± 0.1 | 1.98 ± 0.15 | 1.76 ± 0.065
FIEDLAPEQQVQQFAQL [UBP6] | 2.79 ± 0.059 | 3.02 ± 0.046 | 3.04 ± 0.049 | 2.98 ± 0.037
LDKDRKALIQRKGGKLE [RPL26A] | 2.48 ± 0.18 | 3.5 ± 0.21 | 3.12 ± 0.09 | 2.97 ± 0.14
YQKNKPYPKSRYNRAVP [RPL10] | 2.91 ± 0.045 | 3.06 ± 0.045 | 3.06 ± 0.04 | 2.85 ± 0.038
TDVKLTLPQPRLNKLNS [SMD1] | 2.73 ± 0.066 | 2.79 ± 0.059 | 2.1 ± 0.071 | 2.73 ± 0.059
DTKDALSTRELAGKVGS [RPC53] | 2.8 ± 0.08 | 2.27 ± 0.084 | 2.79 ± 0.1 | 3.08 ± 0.071
QIILAYIKYNILLTSIS [SRP68] | 1.29 ± 0.08 | 1.25 ± 0.074 | 1.12 ± 0.28 | 1.18 ± 0.15
FTVNVLYPDSSSFKKNL [RPN3] | 2.08 ± 0.057 | 2.59 ± 0.067 | 2.55 ± 0.063 | 2.44 ± 0.057
SKQQAKGAFQKVAATSR [RPL24A] | 2.52 ± 0.043 | 2.99 ± 0.045 | 2.84 ± 0.036 | 2.8 ± 0.038
YSRILKSMGRKCFDDIE [YCG1] | 3.16 ± 0.17 | 2.35 ± 0.12 | 2.92 ± 0.21 | 2.16 ± 0.13
MNQSSIDRGLFRSLFFR [RPB2] | 3.16 ± 0.16 | 2.97 ± 0.2 | 2.63 ± 0.26 | 2.94 ± 0.08
GLFGNKPALGSLGSSST [YGR119C/NUP57] | 3.34 ± 0.089 | 2.63 ± 0.084 | 2.77 ± 0.048 | 3.21 ± 0.18
FGQKGGQAIVVHPDYLY [FAS2] | 1.86 ± 0.046 | 1.62 ± 0.04 | 1.99 ± 0.06 | 1.68 ± 0.049
IILPLDNATLTELVDKA [SSN2] | 2.54 ± 0.11 | 3.16 ± 0.15 | 2.6 ± 0.099 | 1.95 ± 0.26
QKYTKEMIDSHIKEASE [SNF2] | 2.93 ± 0.06 | 2.88 ± 0.054 | 2.94 ± 0.051 | 3.02 ± 0.037
NVTTILDEIFSGCDSTK [ECM29] | 2.28 ± 0.12 | 2.8 ± 0.087 | 2.48 ± 0.073 | 2.63 ± 0.042
KLAAIVEIIDQKKVLID [RPL14A] | 2.8 ± 0.18 | 2.69 ± 0.088 | 2.91 ± 0.072 | 2.73 ± 0.062
ISLRNNHKIIARVKAFD [SMD2] | 1.79 ± 0.044 | 2.02 ± 0.038 | 2.49 ± 0.051 | 2 ± 0.041
IEQSITKNIPITHRDLH [SSN8] | 2.37 ± 0.047 | 2.92 ± 0.041 | 2.53 ± 0.046 | 2.78 ± 0.036
EIPTQIYRTTRQDGSYT [ARP9] | 2.94 ± 0.081 | 3.17 ± 0.086 | 2.93 ± 0.083 | 3.06 ± 0.059
PKMQWSLQDNSAAINNE [RPN4] | 3.15 ± 0.063 | 3.2 ± 0.053 | 2.96 ± 0.048 | 3.15 ± 0.041

Sequence | protein stability index (doa10∆) | protein stability index (pdr5∆) | protein stability index (san1∆) | protein stability index (ubr1∆)
LENSSRSPRVVTNALDN [NUT1] | 2.85 ± 0.06 | 2.51 ± 0.058 | 2.279 ± 0.016 | 2.74 ± 0.057
EIAQANSRNAIRKLVKN [RPL19A] | 2.9 ± 0.15 | 3.01 ± 0.083 | 2.86 ± 0.11 | 3.1 ± 0.098
KGVATTREKVLEDKLRA [RRP46] | 3.36 ± 0.15 | 3.16 ± 0.12 | 2.71 ± 0.23 | 3.04 ± 0.075
APAFHTSGKVELPKKLL [SRB8] |  |  | 2.93 ± 0.2 | 2.84 ± 0.12
ESKLKIDPDTKAPNAVV [RPB11] | 2.24 ± 0.2 | 2.56 ± 0.22 | 2.62 ± 0.11 | 2.92 ± 0.14
KKLSKKYNAFIASEVLI [RPL1A] | 1.45 ± 0.026 | 1.9 ± 0.025 | 1.8 ± 0.052 | 1.67 ± 0.023
SEISSLKGKINNEMKSL [SMC1] | 3.09 ± 0.28 |  | 2.65 ± 0.27 | 3.18 ± 0.18
KKIVDDTIMENPEPNKK [IRR1] | 2.14 ± 0.071 | 2.81 ± 0.054 | 2.53 ± 0.084 | 2.59 ± 0.078
IPVGLMAQENSMERKVQ [MCD1] |  | 3.38 ± 0.29 |  | 3.19 ± 0.1
VRSEMGEPIHKIATRGV [FAS1] | 3.14 ± 0.29 | 3.14 ± 0.28 |  | 2.95 ± 0.089
EVQRILIELLTQMDGFD [RPT3] | 1.36 ± 0.054 | 2.08 ± 0.081 | 1.41 ± 0.16 | 1.81 ± 0.069
ELQIFKTANSSSDAFEK [YIL149C/MLP2] | 2.44 ± 0.049 | 2.73 ± 0.049 | 2.61 ± 0.061 | 2.75 ± 0.049
KFSERRKALPKEPKKLL [DSN1] | 2.33 ± 0.069 | 2.88 ± 0.081 | 2.52 ± 0.11 | 2.87 ± 0.053
YMDSMNEKVAVMRNTYN [GAL11] | 2.72 ± 0.13 | 3.24 ± 0.062 | 2.35 ± 0.069 | 2.34 ± 0.098
AKSDETKQASSFSFLNR [YLR335W/NUP2] | 3.35 ± 0.069 | 3.39 ± 0.099 | 3.26 ± 0.044 | 3.31 ± 0.05
VEGISEVQARKSKSVSF [RPT5] | 3.41 ± 0.068 | 3.49 ± 0.11 | 3.41 ± 0.068 | 3.3 ± 0.069
VYSKQATFLLTDIKDTL [MCD1] | 2.27 ± 0.062 | 2.3 ± 0.076 | 2.23 ± 0.086 | 2.3 ± 0.057
VTDLSGKETIARVTGGM [RPS14B] | 3.03 ± 0.087 | 3.09 ± 0.081 | 2.79 ± 0.055 | 2.9 ± 0.061
DPFKTSSFNKRSKFLST [IRR1] | 2.15 ± 0.074 | 2.46 ± 0.053 | 2.04 ± 0.082 | 2.12 ± 0.057
IIVENSGTSGDEDVDVL [RPN2] | 3.3 ± 0.12 | 3.61 ± 0.095 | 3.5 ± 0.075 | 3.52 ± 0.095
LESTKAETDYVDPKRLA [DSN1] | 2.96 ± 0.063 | 3.19 ± 0.067 | 3.04 ± 0.053 | 3.26 ± 0.075
LLKLTKVFIRESLSLKN [YML103C/NUP188] | 1.72 ± 0.1 | 1.89 ± 0.12 | 1.3 ± 0.22 | 1.83 ± 0.17
CTNLTNRTLYELADLPK [GRR1] | 2.93 ± 0.058 | 3.05 ± 0.048 | 2.92 ± 0.036 | 3.1 ± 0.046
HLVMRAISLGLLKGSID [RPN9] | 2.04 ± 0.095 | 2.55 ± 0.14 | 1.58 ± 0.18 | 1.79 ± 0.16
